Here are results for one molecule from article PMC6754870 (2019).

The target of one experiment is T1, VEGFR1 (Rattus norvegicus, UniProt P53767).
T1 chain: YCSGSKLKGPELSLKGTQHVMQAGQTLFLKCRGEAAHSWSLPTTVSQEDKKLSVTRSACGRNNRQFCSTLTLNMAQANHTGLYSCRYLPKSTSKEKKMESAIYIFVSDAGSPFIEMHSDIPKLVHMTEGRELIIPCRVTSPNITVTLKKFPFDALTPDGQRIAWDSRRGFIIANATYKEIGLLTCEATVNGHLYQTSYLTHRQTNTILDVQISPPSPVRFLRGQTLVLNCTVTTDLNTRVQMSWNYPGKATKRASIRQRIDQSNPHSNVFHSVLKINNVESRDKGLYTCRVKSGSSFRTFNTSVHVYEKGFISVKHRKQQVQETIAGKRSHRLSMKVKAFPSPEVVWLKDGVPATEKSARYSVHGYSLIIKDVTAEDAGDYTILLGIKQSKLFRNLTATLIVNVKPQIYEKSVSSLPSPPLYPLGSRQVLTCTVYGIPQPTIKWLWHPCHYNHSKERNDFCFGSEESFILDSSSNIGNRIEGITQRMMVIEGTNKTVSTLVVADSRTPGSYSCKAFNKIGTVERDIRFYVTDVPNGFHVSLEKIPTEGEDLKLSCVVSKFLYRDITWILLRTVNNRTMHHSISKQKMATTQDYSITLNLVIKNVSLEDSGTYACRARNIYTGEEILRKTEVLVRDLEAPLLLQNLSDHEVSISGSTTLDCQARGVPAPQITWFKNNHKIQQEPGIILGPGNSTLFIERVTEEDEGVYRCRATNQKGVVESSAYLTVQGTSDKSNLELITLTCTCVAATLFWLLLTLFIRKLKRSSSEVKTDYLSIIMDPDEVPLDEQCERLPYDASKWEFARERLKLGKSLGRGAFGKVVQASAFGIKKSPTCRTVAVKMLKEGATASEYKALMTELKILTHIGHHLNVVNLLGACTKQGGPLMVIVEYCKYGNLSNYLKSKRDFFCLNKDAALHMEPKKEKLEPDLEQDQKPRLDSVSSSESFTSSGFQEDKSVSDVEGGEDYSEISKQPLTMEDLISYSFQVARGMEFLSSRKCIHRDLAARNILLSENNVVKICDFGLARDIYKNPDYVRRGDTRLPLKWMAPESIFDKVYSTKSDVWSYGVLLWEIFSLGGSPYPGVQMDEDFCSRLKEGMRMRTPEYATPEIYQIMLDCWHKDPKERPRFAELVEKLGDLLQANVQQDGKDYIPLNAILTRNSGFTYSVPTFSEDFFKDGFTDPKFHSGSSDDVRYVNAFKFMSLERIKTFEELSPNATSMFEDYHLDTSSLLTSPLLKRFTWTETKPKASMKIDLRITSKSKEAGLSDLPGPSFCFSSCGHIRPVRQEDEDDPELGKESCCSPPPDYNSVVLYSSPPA
As to the kind of experiment: [125I]-VEGF-A saturation binding to isolated LSECs at 4°C, Scatchard.

The target of a further experiment is T2, VEGFR2 (Rattus norvegicus, UniProt O08775).
T2 chain: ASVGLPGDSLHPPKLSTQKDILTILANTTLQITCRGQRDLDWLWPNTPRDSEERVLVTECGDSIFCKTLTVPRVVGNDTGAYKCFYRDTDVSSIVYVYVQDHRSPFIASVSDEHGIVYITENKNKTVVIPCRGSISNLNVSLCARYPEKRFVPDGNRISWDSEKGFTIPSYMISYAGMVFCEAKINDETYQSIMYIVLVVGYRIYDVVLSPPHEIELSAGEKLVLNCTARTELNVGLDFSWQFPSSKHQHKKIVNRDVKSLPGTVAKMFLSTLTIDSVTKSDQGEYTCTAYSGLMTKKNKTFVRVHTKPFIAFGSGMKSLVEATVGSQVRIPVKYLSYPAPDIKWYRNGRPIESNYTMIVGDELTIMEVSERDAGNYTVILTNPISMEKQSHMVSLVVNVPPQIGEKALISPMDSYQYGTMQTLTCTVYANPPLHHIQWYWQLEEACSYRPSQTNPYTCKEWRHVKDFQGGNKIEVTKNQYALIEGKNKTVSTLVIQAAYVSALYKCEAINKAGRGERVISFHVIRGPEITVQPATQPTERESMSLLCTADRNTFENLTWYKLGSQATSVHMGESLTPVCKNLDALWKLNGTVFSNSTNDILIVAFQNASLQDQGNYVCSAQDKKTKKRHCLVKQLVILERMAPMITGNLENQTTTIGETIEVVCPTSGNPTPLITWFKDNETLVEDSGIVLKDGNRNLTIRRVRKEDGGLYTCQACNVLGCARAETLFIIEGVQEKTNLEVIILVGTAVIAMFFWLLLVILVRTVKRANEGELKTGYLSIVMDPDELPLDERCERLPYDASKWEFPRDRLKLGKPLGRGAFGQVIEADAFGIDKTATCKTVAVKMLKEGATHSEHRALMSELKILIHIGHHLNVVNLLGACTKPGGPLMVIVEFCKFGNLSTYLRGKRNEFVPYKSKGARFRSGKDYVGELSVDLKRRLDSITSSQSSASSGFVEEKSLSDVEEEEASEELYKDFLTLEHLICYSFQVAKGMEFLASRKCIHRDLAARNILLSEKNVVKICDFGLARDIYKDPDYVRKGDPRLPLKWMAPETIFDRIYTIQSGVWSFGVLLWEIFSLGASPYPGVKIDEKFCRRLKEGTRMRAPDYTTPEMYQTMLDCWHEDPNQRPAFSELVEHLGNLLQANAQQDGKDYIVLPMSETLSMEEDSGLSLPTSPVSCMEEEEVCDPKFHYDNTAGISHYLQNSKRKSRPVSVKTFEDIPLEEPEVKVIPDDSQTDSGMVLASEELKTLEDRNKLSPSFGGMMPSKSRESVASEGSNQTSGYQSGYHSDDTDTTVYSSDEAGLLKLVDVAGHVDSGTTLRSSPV
The experiment is described as above.

B1: VEGF-A165 (protein)
chain: MTDRQTDTAPSPSYHLLPGRRRTVDAAASRGQGPEPAPGGGVEGVGARGVALKLFVQLLGCSRFGGAVVRAGEAEPSGAARSASSGREEPQPEEGEEEEEKEEERGPQWRLGARKPGSWTGEAAVCADSAPAARAPQALARASGRGGRVARRGAEESGPPHSPSRRGSASRAGPGRASETMNFLLSWVHWSLALLLYLHHAKWSQAAPMAEGGGQNHHEVVKFMDVYQRSYCHPIETLVDIFQEYPDEIEYIFKPSCVPLMRCGGCCNDEGLECVPTEESNITMQIMRIKPHQGQHIGEMSFLQHNKCECRPKKDRARQEKKSVRGKGKGQKRKRKKSRYKSWSVPCGPCSERRKHLFVQDPQTCKCSCKNTDSRCKARQLELNERTCRCDKPRR
modifications: 125I-labeled VEGF-A
Broadly, the Kd is a measure of binding affinity in units of concentration. A lower Kd goes with a tighter complex. Turning to B1, the Kd was 0.008 nM with VEGFR1 and 0.21 nM with VEGFR2.
